Measured values as given in PMC11573789.

What was measured:
Assay in all cases: NanoBiT (ratiometric protein-fragment complementation assay in live yeast)
Settings in all cases: four experimental replicates; read off a plot
[1] = target: Nmd2/Upf2 [S. cerevisiae]
[2] = target: Eft2
[3] = target: Caf40

For “Upf1-SmBiT mutant C122S [S. cerevisiae] / Nmd2/Upf2 [S. cerevisiae] chain 1 C122S”, the screen value [1] was -2.5 log2.

Upf1-SmBiT (from UniProt P30771) C122S was tested, and the other: NanoBiT ratio (log2 scale) [2] was 1.1 log2 and the other: NanoBiT ratio (log2 scale) [3] was 1.4 log2.
